Reference: publication PMC8102632
Blank lines part the entries; values can stand above or below the substance they belong to.

Legend:
[1] = target: Thiomicrospira Cas2 (Thiomicrospira); assay: cryo-EM structure; 50 uM Cas6-RT-Cas1, 50 uM Cas2 and 12.5 uM half-site DNA substrate dialysed into 10 mM HEPES pH 7.5, 5 mM EDTA, 500 mM KCl, 0.5 mM TCEP, 0.5% glycerol; purified over Superose 6 Increase; single particle cryo-EM; no density seen for the DNA
[2] = target: Thiomicrospira Cas6-RT-Cas1 RT-K574A mutant (Thiomicrospira)
[3] = target: Thiomicrospira Cas6-RT-Cas1 fusion protein (Thiomicrospira); assay: cryo-EM structure; 50 uM Cas6-RT-Cas1, 50 uM Cas2 and 12.5 uM half-site DNA substrate dialysed into 10 mM HEPES pH 7.5, 5 mM EDTA, 500 mM KCl, 0.5 mM TCEP, 0.5% glycerol; purified over Superose 6 Increase; single particle cryo-EM; no density seen for the DNA

- stoichiometry N [1]: 2
Substance: Thiomicrospira Cas2 (natural protein)

- ligation of ssRNA protospacer into pCRISPR by the mutant Cas6-RT-Cas1—Cas2 complex relative to WT (RT-helix of one protomer with Cas1a of another) [2]: > 80 % reduction
Substance: Thiomicrospira Cas6-RT-Cas1 RT-K574A mutant (enzyme)

- stoichiometry N [3]: 2
Substance: Thiomicrospira Cas6-RT-Cas1 fusion protein (enzyme)
